The supplement of paper PMC12636428

Test system: Saccharomyces cerevisiae
Assay: transcriptional activation domain activity (GFP:mCherry ratio, weighted mean of sorted bins, harmonized to initial dataset scale) (arbitrary fluorescence ratio units); higher = stronger transcriptional activation
Conditions: beta-estradiol 1 µM; induction time 4 h
Method in brief: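 The activation activity of each tile is the read-weighted mean of bin median fluorescence, averaged across its barcodes and mapped linearly onto the scale of the initial dataset. Tiles were fused to an estradiol-inducible synthetic transcription factor, barcoded, and integrated at URA3 in yeast diploids carrying a GFP reporter. Induction used 1 uM beta-estradiol in SC for 4 hours at 30 °C, after which cells were sorted into 8 GFP:mCherry bins, and any tile with fewer than 50 reads was dropped.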

Row | Sequence | transcriptional activation domain activity
1 | SPKMYESFLRIDLRNLEVRVLGMGATTSDVRLANIVVQYLVKGWLPQTAYATL | 71200
2 | SPLNSFDRSFYPIGCTNLSNDIPGYSFLNDAMSEIHTFGDFNGELDSTFLEFS | 131000
3 | SPLPLLICSLPSLVNPLPLLPSTLALLPPPFILYYVLQYHVILFVFLVVFCFS | 33200
4 | SPLPPPSPFFPLQPLSLFHLSPLFSPVSLHFPCFSPFPPPLPPFFLPLLPLLS | 60500
5 | SPMGSGSDEEEEERRRKRRKEKKRSKKSKRERSGSLSGSGSEGGGGKRKRHQD | 36000
6 | SPQRSTSSTSSKAAAAPKAAAQPKQQQQKPAAPSKPAAAAAAPKTAPKPAAAS | 26000
7 | SPRPSYILNAYLFISLLFDIVVLRTVWIALPSFQPVRIVLTSSFALKTIILFL | 54000
8 | SPSPSTTATPPASPSPPSRTKSTPRASSRSACAPSVTTPAGRPRSCARSGPRC | 38000
9 | SPSRNAERPSPAAPAAMERGPDGRPRLKLAPRSAPRTETPSPAPVAPPAPVHV | 29400
10 | SPSRRRDRDYDYSRYRRRDDSRSRSPRRRADPKDQQEKEKEKVKVKPSRAAAT | 16200
11 | SPSSGLNINFFYHEVLMVLSLFNSMTRPDVMRWYAKTRFYHIVNLTAWQIYPC | 57400
12 | SPSSQTTSSTTVVLVFGSDEKRVKEVGDGLKSKLAVKGGGKGTRWSGKYTGVW | 32000
13 | SPTLSHCTDYRTPALAYNILITCSLFLLFRPKPLILFWCLVCIGFWHVALFSQ | 52500
14 | SPTRAYVGANTNSKNASFNDADLLSSSYWIKAYNDHLFSVSESDETSPMNSEL | 38800
15 | SPTSAFGTASAPAATSAFGAPATGAAGGGGGGFSAFAGKPAAFGGAAPAPAPA | 46100
16 | SPVYLICMGTVLLYVGVIIVMLIERIAYFRPGDGLCVIGLKPVASLSLLCFDL | 37200
17 | SPWSLPHLESKFVEDGLYYAIQVISYISKINSKASYYYYQIRMLLVASRFIMQ | 46000
18 | SPWVSWADTHSNFSRVVQVPSIYWRADPYSTASAETLRWATVVCVLLFFAYFR | 42700
19 | SQEESIDNENQKVKEEEIEISVNNIKTEVEKEELKKDNKKGKKVVNKKEIKEE | 39900
20 | SQKKHCELCKTAFRFTKLYSPDMPKHLPFHIFVHHMTRYLIRNFLVWLRAALV | 61500
21 | SQKKHCELCKTAFRFTKLYSPDMPKHLPFHIFVHHMTRYLLRNFLVWLRAALV | 43000

Row | Sequence | transcriptional activation domain activity
22 | SQKKHCELCKTPFRFTKLYSPSMPKTLPVYVFLSHVAKYLLRNLLVEARAMLV | 42900
23 | SQKNGTSAANALVYGGFSHTVTQHTIKDVSIDGTWLEEEIDGFKSDTLGFHVD | 72800
24 | SQLPSLRLFNSYLALWAIGLISIMLFLLIATWHYARVDWQMQVLAVHHVLNLS | 34800
25 | SQLQDPIAKEHVAFGLRHMYKTLQNEVKSYYNLMQSLHVRLPGLEFLTLWMAF | 50100
26 | SQLYFNVYPNELDERFSLFDPTYSLQWLFEHLFTTRVVELTRMLCFVMCIFVL | 37700
27 | SQNSNDTSSKGIVDPFVEQNNDITTALLNNELFQGPSLSDEVTDWFGASEDIG | 91000
28 | SQPSDTIRKRTAGDDGALDQTENTSISPKKRRTEDHTKGEEDEGERGVGNSGT | 22200
29 | SQQRLEVSAMYLFWHMDTVRGLCVRMPGTVMTRAHFFRLLTYYFAMLFLSAAL | 57000
30 | SQSRSRSASRSRSPPRKREKRDSSDREDSRDRRRNKSESRSRSRSPAKSAGSA | 16300
31 | SQVAVSPGAVIEVNEEDAGEEQEQQQPARKRQRHRSKRQKLDAEQSAGQGGVV | 31700
32 | SQVCLDSFGLLFAVVAYPCTSLLLLIFILASFLTFQAIFTLFPLFRLLAFFCL | 41700
33 | SQVIKILTLLFFFLNLLFFVLICAATVARYCMFPQLWPIMLNHPSQSLFIGAF | 60600
34 | SQVNKGKVQVWVMYFSFSFFFLFFIHLVCWFLLFCFFFFFVPFIIPLFFFFFL | 32300
35 | SQWRGVVALKLQIVKTLMKIRMVFPGLMTGLSLEYFSVIWTELNNALPIYLNF | 48000
36 | SRAKVCGWADVFMVIAMHCLLGWSVTMTLYALRGGTRHIWDLEPLGVDNLIKA | 35200
37 | SRDRDRKEKTDKTDKDRERDREKERRGEREREREKERERERAERHRERDRERE | 32800
38 | SREFLWVGFGVRCMVLAKFQVIKGLKYIRTIIAQKNQSAGLAIELRILMVVWV | 43800
39 | SREGKGGGAGRGKGGEQGGGMGEGKQGGGGGEAERGSREGKQRGEAGGRGKEE | 44600
40 | SREGPAQSSCSSRVTEILKSSRDLKVGDVLVLGKDQRVPADVVLLKSFATEAS | 18600
41 | SREQPPSGQSRETLQKRVLHVRSVGRVTKGGKIRSASAIVVVGNGNGIGGYGE | 38900
